Experiment [1] deals with T1, human GITR (hGITR), glucocorticoid-induced TNF receptor (human, UniProt Q9Y5U5 26-241).
T1 construct: also called TNFRSF18
T1 sequence: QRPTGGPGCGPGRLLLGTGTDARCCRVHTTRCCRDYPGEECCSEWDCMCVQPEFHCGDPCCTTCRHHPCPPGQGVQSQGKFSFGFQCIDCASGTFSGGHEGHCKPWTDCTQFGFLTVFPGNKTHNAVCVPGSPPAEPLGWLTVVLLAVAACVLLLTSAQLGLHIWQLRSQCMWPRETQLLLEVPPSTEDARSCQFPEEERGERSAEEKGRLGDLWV
In words: FACS, L-M (mouse fibroblast) cells transfected with the GITR gene, 50 ul hybridoma supernatant. How it is done: FIG. 3 depicts a FACS analysis of L-M (mouse fibroblast) cells transfected with the GITR gene that were stained with 50 μl of supernatant fluid from GITR-expressing hybridoma cells. The GITR binding molecule stained GITR-transfected cells but not the untransfected L-M cells.

For experiment [2], the target named is T2, human GITR (hGITR), glucocorticoid-induced TNF receptor (UniProt Q9Y5U5 26-241).
T2 chain: T1 sequence
In words: SPR.

B1: 6C8 antibody (antibody, V domains shown)
VH: QVTLKESGPGILKPSQTLSLTCSFSGFSLSTSGMGVGWIRQPSGKGLEWLAHIWWDDDKYYNPSLKSQLTISKDTSRNQVFLKITSVDTADAATYYCARTRRYFPFAYWGQGTLVTVSS
VL: DIVMTQSQKFMSTSVGDRVSVTCKASQNVGTNVAWYQQKPGQSPKALIYSASYRYSGVPDRFTGSGSGTDFTLTINNVHSEDLAEYFCQQYNTDPLTFGAGTKLEIK
notes: also called anti-GITR
For the molecule B1, the binding result in experiment [1] was “binds”. For the same molecule, in experiment [2], the affinity, expressed as Kd, was 1.1 nM.

The values above are taken from patent US20070098719A1 (GITR, published 2007).
